In patent publication US20050009042A1 (AVENTIS PHARMA S A, published 2005):

B4: OB-RGRP-Luc (other)
chain: MAGVKALVALSFSGAIGLTFLMLGCALEDYGVYWPLFVLIFHAISPIPHFIAKRVTYDSDATSSACRELAYFFTTGIVVSAFGFPVILARVAVIKWGACGLVLAGNAVIFLTIQGFFLIFGRGDDFSWEQW
notes: Expressed in cells from pcDNA3-OB-RGRP-Luc; also called OB-RGRP-Rluc; not shown: Renilla luciferase, coding region from vector pRL-CMV (Promega)

How the values were obtained:
OB-Rl = test: cell-based or functional assay
[1] = target: T1, MT2R-Luc, protein from fusion of the melatonin receptor MT2 with luciferase (UniProt P49286 1-362); test: BRET in living HEK cells, equimolar coexpression
T1 construct: whole, on cells; Control fusion protein; also called melatonin-Luc MT2 receptor
T1 sequence (looked up): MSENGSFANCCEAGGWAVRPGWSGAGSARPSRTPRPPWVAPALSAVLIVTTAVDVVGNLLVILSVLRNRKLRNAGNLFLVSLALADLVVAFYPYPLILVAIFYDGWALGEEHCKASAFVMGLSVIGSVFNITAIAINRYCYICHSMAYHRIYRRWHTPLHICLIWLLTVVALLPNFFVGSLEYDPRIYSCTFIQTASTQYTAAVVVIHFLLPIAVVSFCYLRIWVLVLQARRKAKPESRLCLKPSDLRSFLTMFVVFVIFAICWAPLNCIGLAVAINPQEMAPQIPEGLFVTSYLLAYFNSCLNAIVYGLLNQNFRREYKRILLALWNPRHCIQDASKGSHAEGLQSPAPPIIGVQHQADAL
Experimental: (§1) Study of the oligomerization of OB-RGRP in live HEK cells, by BRET technology. FIG. 6a: the fusion proteins indicated were coexpressed at an equimolar ratio, and BRET measurement experiments were carried out. FIG. 6b: constant amounts of the plasmid OB-RGRP-Luc were coexpressed with increasing amounts of the plasmid OB-RGRP-YFP and BRET measurements were carried out. MT2R-Luc, protein from fusion of the melatonin receptor MT2 with luciferase.
(§2) 48 h after transfection, the COS-7, HeLa or HEK 293 cells expressing the OB-R fusion proteins were detached and washed in PBS. 1-2×10⁵ cells were distributed into wells of optiplate plates (96-well, Packard Instrument Company, Meriden, Conn.) in the presence or absence of the ligands, and incubated at 25° C. Alternatively, the same procedure was carried out with membranes prepared from the cells expressing the various constructs. The substrate, coelenterazine h (Molecular Probes, Eugene, Oreg.), was added at a final concentration of 5 μmol.L⁻¹ and the readings were carried out with a Fusion™ luminometer/fluorimeter (Packard Instrument Company, Meriden, Conn.), which makes it possible to measure luminescence through two filters (luciferase filter: 485±10 nm; YFP filter: 530±12.5 nm). […] The results are expressed as milliBRET units (mBU), 1 mBRET corresponding to the values of the differences in the ratios multiplied by 1000. […]

[2] = target: T2, construct of the insulin receptor tagged with Luc (UniProt P06213 28-1382); test: BRET in living cells, equimolar coexpression
T2 construct: whole, on cells; Control fusion protein; also called IR-Luc
Experimental: (§3) 48 h after transfection, the COS-7, HeLa or HEK 293 cells expressing the OB-R fusion proteins were detached and washed in PBS. 1-2×10⁵ cells were distributed into wells of optiplate plates (96-well, Packard Instrument Company, Meriden, Conn.) in the presence or absence of the ligands, and incubated at 25° C. Alternatively, the same procedure was carried out with membranes prepared from the cells expressing the various constructs. The substrate, coelenterazine h (Molecular Probes, Eugene, Oreg.), was added at a final concentration of 5 μmol.L⁻¹ and the readings were carried out with a Fusion™ luminometer/fluorimeter (Packard Instrument Company, Meriden, Conn.), which makes it possible to measure luminescence through two filters (luciferase filter: 485±10 nm; YFP filter: 530±12.5 nm). The BRET ratio was defined as the difference in emission at 530 nm/485 nm of the cells cotransfected with the Luc and YFP fusion proteins and the emission at 530 nm/485 nm of the Luc fusion protein transfected alone into the cells. The results are expressed as milliBRET units (mBU), 1 mBRET corresponding to the values of the differences in the ratios multiplied by 1000.
(§4) We used BRET technology to study a possible interaction between OB-R and OB-RGRP in living cells. An energy transfer was constitutively observed in the cells coexpressing the OB-Rₛ-Luc construct and the OB-RGRP-YFP construct, indicating proximity of the interaction partners (FIG. 7). The same results were obtained in cells coexpressing OB-Rₛ-Luc and the MYO47-YFP construct, and also in the reverse orientation: in cells coexpressing OB-RGRP-Luc and OB-Rₛ-YFP, or in cells coexpressing MYO47-Luc and OB-Rₛ-YFP. The specificity of these interactions was confirmed by the lack of energy transfer between OB-Rₛ-Luc, OB-RGRP-Luc, MYO47-Luc and a construct of the insulin receptor tagged with YFP (Boute et al. (2001) Mol Pharmacol 60, 640-645), and also in the reverse orientation: by the lack of energy transfer between a construct of the insulin receptor tagged with Luc and the OB-Rₛ-YFP, OB-RGRP-YFP and MYO47-YFP construct.

[3] = target: the molecule itself; test: SDS-PAGE and anti-YFP immunoblot of HeLa cell lysates, with or without DSP crosslinker; self-association
Experimental: (§5) Study of the oligomerization of OB-RGRP with SDS-PAGE experiments and immunoprecipitations. FIG. 4a: the cells expressing the fusion proteins indicated were treated or not treated with 2 mmol.L⁻¹ dithiobis(succinimidyl propionate) (DSP) in PBS (1×, pH7.4) in order to crosslink the protein complexes. The proteins were separated by SDS-PAGE and the proteins from fusions with YFP were detected using a specific anti-YFP antibody. FIG. 4b: the cells expressing the construct 6Myc-OB-RGRP were solubilized with 1% of digitonin or 5% of SDS and the solubilized material was immunoprecipitated with an anti-myc antibody. The precipitates were subjected to separation by SDS-PAGE and the proteins tagged with myc were detected with an anti-myc antibody.
(§6) The total lysates were prepared by washing the cells once with cold PBS (pH 7.4) and denatured by adding loading buffer (30 mmol.L⁻¹ Tris HCl, pH 6.8, 1% glycerol, 5% SDS, 50 mmol.L⁻¹ DTT and 0.05% bromophenol blue). The total lysates or the immunoprecipitates were incubated for 10 minutes at 90° C. and then loaded onto 10% acrylamide gel for separation by electrophoresis (SDS-PAGE).
OB-RGRP was tagged with YFP at its C-terminal tail and expressed in HeLa cells. The proteins were separated by polyacrylamide gel electrophoresis under denaturing conditions (SDS-PAGE) and immunoblotting experiments were carried out with an anti-YFP antibody. […]

OB-RGRP-Luc [4] = target: B4; test: BRET in living HEK cells; the signal also rises hyperbolically to saturation with the OB-RGRP-YFP/OB-RGRP-Luc ratio
Experimental: as §1, §2

OB-RGRP-Luc [5] = target: B4; test: BRET in living HEK cells, equimolar coexpression
Experimental: as §1, §2

[6] = target: the molecule itself; test: SDS-PAGE and anti-YFP immunoblot; self-association
Experimental: as §5, §6

[7] = target: the molecule itself; test: anti-myc immunoprecipitation, SDS-PAGE and anti-myc blot; self-association
[8] = target: T3, IR-YFP, protein from fusion of the insulin receptor with YFP (UniProt P06213 28-1382); test: BRET in living cells, equimolar coexpression
T3 construct: whole, on cells; Control fusion protein; also called construct of the insulin receptor tagged with YFP; not shown: YFP
Experimental: as §3, §4

leptin (ligand) gave an activation of a luciferase reporter gene under STAT3-response elements, EC50 (OB-Rl) of 0.05 nM, an activation of a luciferase reporter gene under STAT5-response elements, EC50 (OB-Rl) of 0.05 nM and an increase in the basal activation of the reporter gene for STAT3 (OB-Rl) of 1.5 fold.

B1: OB-RGRP-YFP (other)
chain: MAGVKALVALSFSGAIGLTFLMLGCALEDYGVYWPLFVLIFHAISPIPHFIAKRVTYDSDATSSACRELAYFFTTGIVVSAFGFPVILARVAVIKWGACGLVLAGNAVIFLTIQGFFLIFGRGDDFSWEQW
notes: Expressed in HeLa or HEK cells from pcDNA3-OB-RGRP-YFP; also called OB-RGRP tagged with YFP at its C-terminal tail; OB-RGRP-YFB; not shown: YFP coding region from vector pGFPtpz-N1 (Cytogem-Topaze, Packard)
B1: no binding [1]; no binding [2]; binds [3]. B1: binds (OB-RGRP-Luc [4]).

B2: YFP-OB-RGRP (other)
chain: MAGVKALVALSFSGAIGLTFLMLGCALEDYGVYWPLFVLIFHAISPIPHFIAKRVTYDSDATSSACRELAYFFTTGIVVSAFGFPVILARVAVIKWGACGLVLAGNAVIFLTIQGFFLIFGRGDDFSWEQW
notes: The construction of this plasmid is not described on its own; only the double fusion YFP-OB-RGRP-Luc is; also called OB-RGRP tagged at the N-terminal with YFP; not shown: YFP (Topaz, from pGFPtpz-N1) at the N-terminus
B2: binds (OB-RGRP-Luc [5]); binds [6].

B3: 6Myc-OB-RGRP (4TM) (other)
chain: MAGVKALVALSFSGAIGLTFLMLGCALEDYGVYWPLFVLIFHAISPIPHFIAKRVTYDSDATSSACRELAYFFTTGIVVSAFGFPVILARVAVIKWGACGLVLAGNAVIFLTIQGFFLIFGRGDDFSWEQW
notes: not shown: The N-terminal 6xMyc tag (the 6myc fragment of pCDNA3-RSV-6Myc) and its junction
B3: binds [7].

B4: no binding [8].

B5: MYO47-Luc (other)
chain: MAGIKALISLSFGGAIGLMFLMLGCALPIYNKYWPLFVLFFYILSPIPYCIARRLVDDTDAMSNACKELAIFLTTGIVVSAFGLPIVFARAHLIEWGACALVLTGNTVIFATILGFFLVFGSNDDFSWQQW
notes: also called MY047-Rluc; not shown: Renilla luciferase (vector pcDNA3-Rluc)
B5: no binding [8].

B6: MYO47-YFP (other)
chain: MAGIKALISLSFGGAIGLMFLMLGCALPIYNKYWPLFVLFFYILSPIPYCIARRLVDDTDAMSNACKELAIFLTTGIVVSAFGLPIVFARAHLIEWGACALVLTGNTVIFATILGFFLVFGSNDDFSWQQW
notes: also called MY047-YFP; not shown: YFP (Topaz, vector pcDNA3-YFP)
B6: no binding [2].
